# Measured values as given in patent US20210246166A1 (Bayer, published 2021).
# Bridge positions count the residues as written; N and C are the ends. Square brackets hold non-standard residues; d marks the D form. Ends that are not written are not given here. Phe(3-COOH) = N[C@@H](Cc1cccc(C(=O)O)c1)C(=O)O; Oic = O=C(O)[C@@H]1C[C@@H]2CCCC[C@@H]2N1; PEG8 = NCCOCCOCCOCCOCCOCCOCCOCCOCCC(=O)O; NMeI = CC[C@H](C)[C@H](NC)C(=O)O; tBuAla = CC(C)(C)C[C@H](N)C(=O)O; Cit = NC(=O)NCCC[C@H](N)C(=O)O; Pen = CC(C)(S)[C@H](N)C(=O)O; 4Amb = NCc1ccc(C(=O)O)cc1; NMeC = CN[C@@H](CS)C(=O)O; Pip = O=C(O)[C@@H]1CCCCN1; NMeA = CN[C@@H](C)C(=O)O; GABA = NCCCC(=O)O; Sar = CNCC(=O)O
# T1: Recombinant human MASP1 enzyme (fragment corresponding to amino acids 297-699, C-terminal His Tag) (human, UniProt P48740 297-699)
# T1 sequence: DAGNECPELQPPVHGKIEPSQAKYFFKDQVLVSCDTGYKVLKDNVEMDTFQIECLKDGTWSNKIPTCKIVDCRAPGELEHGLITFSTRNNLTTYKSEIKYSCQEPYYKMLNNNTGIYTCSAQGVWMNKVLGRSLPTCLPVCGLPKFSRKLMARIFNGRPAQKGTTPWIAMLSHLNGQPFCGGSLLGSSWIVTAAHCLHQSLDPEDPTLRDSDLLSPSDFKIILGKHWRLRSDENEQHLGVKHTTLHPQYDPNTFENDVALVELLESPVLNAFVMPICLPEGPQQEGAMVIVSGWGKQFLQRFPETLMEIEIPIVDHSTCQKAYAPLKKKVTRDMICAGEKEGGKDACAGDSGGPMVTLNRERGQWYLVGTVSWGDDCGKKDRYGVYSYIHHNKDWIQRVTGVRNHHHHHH
# T2: recombinant human MASP1 active protease (amino acids 297-699, C-terminal His Tag) (human, UniProt P48740 297-699)
# T2 sequence: T1 sequence
# B1: AIC+SRS-((tBu)A)-P-(Oic)-I-((N-Me)C)+IPD-OH (HCl salt) (peptide)
# peptide: AICSRS[tBuAla]P[Oic]I[NMeC]IPD-OH
# modifications: disulfide 3-11; also: HCl salt
# B2: aIC+SRSLP-(Oic)-I-(Pen)+IPD-NH2 (peptide)
# peptide: [dA]ICSRSLP[Oic]I[Pen]IPD-NH2
# modifications: disulfide 3-11
# B3: HIC+SRS-((tBu)A)-PPI-((N-Me)C)+I-NH2 (peptide)
# peptide: HICSRS[tBuAla]PPI[NMeC]I-NH2
# modifications: disulfide 3-11; N-terminus assumed
# SMILES: CC[C@H](C)[C@H](NC(=O)[C@@H]1CSSC[C@H](NC(=O)[C@@H](NC(=O)[C@@H](N)Cc2c[nH]cn2)[C@@H](C)CC)C(=O)N[C@@H](CO)C(=O)N[C@@H](CCCNC(=N)N)C(=O)N[C@@H](CO)C(=O)N[C@@H](CC(C)(C)C)C(=O)N2CCC[C@H]2C(=O)N2CCC[C@H]2C(=O)N[C@@H]([C@@H](C)CC)C(=O)N1C)C(N)=O
# B4: ((N-Me)A)-IC+SRS-((tBu)A)-PPI-((N-Me)C)+IPD-NH2 (peptide)
# peptide: [NMeA]ICSRS[tBuAla]PPI[NMeC]IPD-NH2
# modifications: disulfide 3-11; N-terminus assumed
# SMILES: CC[C@H](C)[C@H](NC(=O)[C@H](C)NC)C(=O)N[C@H]1CSSC[C@@H](C(=O)N[C@H](C(=O)N2CCC[C@H]2C(=O)N[C@@H](CC(=O)O)C(N)=O)[C@@H](C)CC)N(C)C(=O)[C@H]([C@@H](C)CC)NC(=O)[C@@H]2CCCN2C(=O)[C@@H]2CCCN2C(=O)[C@H](CC(C)(C)C)NC(=O)[C@H](CO)NC(=O)[C@H](CCCNC(=N)N)NC(=O)[C@H](CO)NC1=O
# B5: ((N-Me)G)-IC+SRSLPPIC+IPD-NH2 (HCl salt) (peptide)
# peptide: [Sar]ICSRSLPPICIPD-NH2
# modifications: disulfide 3-11; also: HCl salt
# B6: Ac-IC+SRS-((tBu)A)-PPI-(Pen)+IPD-NH2 (peptide)
# peptide: Ac-ICSRS[tBuAla]PPI[Pen]IPD-NH2
# modifications: disulfide 2-10
# SMILES: CC[C@H](C)[C@H](NC(C)=O)C(=O)N[C@H]1CSSC(C)(C)[C@@H](C(=O)N[C@H](C(=O)N2CCC[C@H]2C(=O)N[C@@H](CC(=O)O)C(N)=O)[C@@H](C)CC)NC(=O)[C@H]([C@@H](C)CC)NC(=O)[C@@H]2CCCN2C(=O)[C@@H]2CCCN2C(=O)[C@H](CC(C)(C)C)NC(=O)[C@H](CO)NC(=O)[C@H](CCCNC(=N)N)NC(=O)[C@H](CO)NC1=O
# B7: aIC+SRSLP-(Oic)-I-(Pen)+IPD-OH (peptide)
# peptide: [dA]ICSRSLP[Oic]I[Pen]IPD-OH
# modifications: disulfide 3-11
# B8: ((N-Me)G)-IC+SRSLP-(Oic)-I-(Pen)+IP-(PEG8(28 atoms))-NH2 (peptide)
# peptide: [Sar]ICSRSLP[Oic]I[Pen]IP[PEG8]-NH2
# modifications: disulfide 3-11; N-terminus assumed
# SMILES: CC[C@H](C)[C@H](NC(=O)CNC)C(=O)N[C@H]1CSSC(C)(C)[C@@H](C(=O)N[C@H](C(=O)N2CCC[C@H]2C(=O)NCCOCCOCCOCCOCCOCCOCCOCCOCCC(N)=O)[C@@H](C)CC)NC(=O)[C@H]([C@@H](C)CC)NC(=O)[C@@H]2C[C@@H]3CCCC[C@@H]3N2C(=O)[C@@H]2CCCN2C(=O)[C@H](CC(C)C)NC(=O)[C@H](CO)NC(=O)[C@H](CCCNC(=N)N)NC(=O)[C@H](CO)NC1=O
# B9: G-((N-Me)I)-C+SRSLPPIC+IPD-NH2 (peptide)
# peptide: G[NMeI]CSRSLPPICIPD-NH2
# modifications: disulfide 3-11; N-terminus assumed
# SMILES: CC[C@H](C)[C@@H]1NC(=O)[C@@H]2CCCN2C(=O)[C@@H]2CCCN2C(=O)[C@H](CC(C)C)NC(=O)[C@H](CO)NC(=O)[C@H](CCCNC(=N)N)NC(=O)[C@H](CO)NC(=O)[C@@H](NC(=O)[C@H]([C@@H](C)CC)N(C)C(=O)CN)CSSC[C@@H](C(=O)N[C@H](C(=O)N2CCC[C@H]2C(=O)N[C@@H](CC(=O)O)C(N)=O)[C@@H](C)CC)NC1=O
# B10: ((N-Me)G)-IC+SRSLP-(Oic)-I-(Pen)+IP-((3-Carboxy)F)-NH2 (peptide)
# peptide: [Sar]ICSRSLP[Oic]I[Pen]IP[Phe(3-COOH)]-NH2
# modifications: disulfide 3-11; N-terminus assumed
# SMILES: CC[C@H](C)[C@H](NC(=O)CNC)C(=O)N[C@H]1CSSC(C)(C)[C@@H](C(=O)N[C@H](C(=O)N2CCC[C@H]2C(=O)N[C@@H](Cc2cccc(C(=O)O)c2)C(N)=O)[C@@H](C)CC)NC(=O)[C@H]([C@@H](C)CC)NC(=O)[C@@H]2C[C@@H]3CCCC[C@@H]3N2C(=O)[C@@H]2CCCN2C(=O)[C@H](CC(C)C)NC(=O)[C@H](CO)NC(=O)[C@H](CCCNC(=N)N)NC(=O)[C@H](CO)NC1=O
# B11: (3-Amino-2,2-dimethylpropionic acid)-IC+SRS-((tBu)A)-PPI-(Pen)+IPD-NH2 (peptide)
# peptide: [3‑Amino‑2,2‑dimethylpropionic acid]ICSRS[tBuAla]PPI[Pen]IPD-NH2
# modifications: disulfide 3-11
# B12: G-((N-Me)I)-C+SRSLPPIC+IPD-NH2 (HCl salt) (peptide)
# peptide: G[NMeI]CSRSLPPICIPD-NH2
# modifications: disulfide 3-11; also: HCl salt
# B13: AIC+SRSLP-(Oic)-I-((N-Me)C)+IPD-OH (peptide)
# peptide: AICSRSLP[Oic]I[NMeC]IPD-OH
# modifications: disulfide 3-11; N-terminus assumed
# SMILES: CC[C@H](C)[C@H](NC(=O)[C@H](C)N)C(=O)N[C@H]1CSSC[C@@H](C(=O)N[C@H](C(=O)N2CCC[C@H]2C(=O)N[C@@H](CC(=O)O)C(=O)O)[C@@H](C)CC)N(C)C(=O)[C@H]([C@@H](C)CC)NC(=O)[C@@H]2C[C@@H]3CCCC[C@@H]3N2C(=O)[C@@H]2CCCN2C(=O)[C@H](CC(C)C)NC(=O)[C@H](CO)NC(=O)[C@H](CCCNC(=N)N)NC(=O)[C@H](CO)NC1=O
# B14: ((N-Me)G)-IC+SRSLPPIC+IPD-NH2 (peptide)
# peptide: [Sar]ICSRSLPPICIPD-NH2
# modifications: disulfide 3-11; N-terminus assumed
# SMILES: CC[C@H](C)[C@H](NC(=O)CNC)C(=O)N[C@H]1CSSC[C@@H](C(=O)N[C@H](C(=O)N2CCC[C@H]2C(=O)N[C@@H](CC(=O)O)C(N)=O)[C@@H](C)CC)NC(=O)[C@H]([C@@H](C)CC)NC(=O)[C@@H]2CCCN2C(=O)[C@@H]2CCCN2C(=O)[C@H](CC(C)C)NC(=O)[C@H](CO)NC(=O)[C@H](CCCNC(=N)N)NC(=O)[C@H](CO)NC1=O
# B15: (2-(Morpholine)acetyl)-IC+SRS-((tBu)A)-PPI-(Pen)+IPD-NH2 (peptide)
# peptide: [2‑(Morpholine)acetyl]ICSRS[tBuAla]PPI[Pen]IPD-NH2
# modifications: disulfide 3-11
# B16: (Gamma-Abu)-IC+SRS-((tBu)A)-PPI-((N-Me)C)+IPD-NH2 (peptide)
# peptide: [GABA]ICSRS[tBuAla]PPI[NMeC]IPD-NH2
# modifications: disulfide 3-11; N-terminus assumed
# SMILES: CC[C@H](C)[C@H](NC(=O)CCCN)C(=O)N[C@H]1CSSC[C@@H](C(=O)N[C@H](C(=O)N2CCC[C@H]2C(=O)N[C@@H](CC(=O)O)C(N)=O)[C@@H](C)CC)N(C)C(=O)[C@H]([C@@H](C)CC)NC(=O)[C@@H]2CCCN2C(=O)[C@@H]2CCCN2C(=O)[C@H](CC(C)(C)C)NC(=O)[C@H](CO)NC(=O)[C@H](CCCNC(=N)N)NC(=O)[C@H](CO)NC1=O
# B17: (4-(Aminomethyl)benzoic acid)-IC+SRS-((tBu)A)-PPI-(Pen)+IPD-NH2 (peptide)
# peptide: [4Amb]ICSRS[tBuAla]PPI[Pen]IPD-NH2
# modifications: disulfide 3-11; N-terminus assumed
# SMILES: CC[C@H](C)[C@H](NC(=O)c1ccc(CN)cc1)C(=O)N[C@H]1CSSC(C)(C)[C@@H](C(=O)N[C@H](C(=O)N2CCC[C@H]2C(=O)N[C@@H](CC(=O)O)C(N)=O)[C@@H](C)CC)NC(=O)[C@H]([C@@H](C)CC)NC(=O)[C@@H]2CCCN2C(=O)[C@@H]2CCCN2C(=O)[C@H](CC(C)(C)C)NC(=O)[C@H](CO)NC(=O)[C@H](CCCNC(=N)N)NC(=O)[C@H](CO)NC1=O
# B18: (3-Amino-3-methylbutyric acid)-IC+SRS-((tBu)A)-PPI-(Pen)+IPD-NH2 (peptide)
# peptide: [3‑Amino‑3‑methylbutyric acid]ICSRS[tBuAla]PPI[Pen]IPD-NH2
# modifications: disulfide 3-11
# B19: (Pip)-IC+SRS-((tBu)A)-PPI-((N-Me)C)+IPD-NH2 (peptide)
# peptide: [Pip]ICSRS[tBuAla]PPI[NMeC]IPD-NH2
# modifications: disulfide 3-11; N-terminus assumed
# SMILES: CC[C@H](C)[C@H](NC(=O)[C@@H]1CCCCN1)C(=O)N[C@H]1CSSC[C@@H](C(=O)N[C@H](C(=O)N2CCC[C@H]2C(=O)N[C@@H](CC(=O)O)C(N)=O)[C@@H](C)CC)N(C)C(=O)[C@H]([C@@H](C)CC)NC(=O)[C@@H]2CCCN2C(=O)[C@@H]2CCCN2C(=O)[C@H](CC(C)(C)C)NC(=O)[C@H](CO)NC(=O)[C@H](CCCNC(=N)N)NC(=O)[C@H](CO)NC1=O
# B20: (Cit)-IC+SRS-((tBu)A)-PPI-(Pen)+IPD-NH2 (peptide)
# peptide: [Cit]ICSRS[tBuAla]PPI[Pen]IPD-NH2
# modifications: disulfide 3-11; N-terminus assumed
# SMILES: CC[C@H](C)[C@H](NC(=O)[C@@H](N)CCCNC(N)=O)C(=O)N[C@H]1CSSC(C)(C)[C@@H](C(=O)N[C@H](C(=O)N2CCC[C@H]2C(=O)N[C@@H](CC(=O)O)C(N)=O)[C@@H](C)CC)NC(=O)[C@H]([C@@H](C)CC)NC(=O)[C@@H]2CCCN2C(=O)[C@@H]2CCCN2C(=O)[C@H](CC(C)(C)C)NC(=O)[C@H](CO)NC(=O)[C@H](CCCNC(=N)N)NC(=O)[C@H](CO)NC1=O
# Target: T1, Recombinant human MASP1 enzyme …
# Assay: cell-based or functional assay
row,human MASP1 IC50,Binder
1,3.8 nM,B1
2,6.3 nM,B2
3,3.8 nM,B3
4,4.4 nM,B4
5,7.1 nM,B5
6,16 nM,B6
7,7 nM,B7
8,4.2 nM,B8
9,11 nM,B9
10,5 nM,B10
11,4.2 nM,B11
12,5.5 nM,B12
13,4.4 nM,B13
14,13 nM,B14
15,15 nM,B15

# Target: Recombinant human MASP2 enzyme (fragment corresponding to amino acids 297-686, C-terminal His Tag) (human, UniProt O00187 297-686)
# Assay: cell-based or functional assay
# Sequence of Recombinant human MASP2 enzyme (fragment corresponding to amino acids 297-686, C-terminal His Tag) (O00187 other isoform, or with tags, fused parts or gaps limits assumed): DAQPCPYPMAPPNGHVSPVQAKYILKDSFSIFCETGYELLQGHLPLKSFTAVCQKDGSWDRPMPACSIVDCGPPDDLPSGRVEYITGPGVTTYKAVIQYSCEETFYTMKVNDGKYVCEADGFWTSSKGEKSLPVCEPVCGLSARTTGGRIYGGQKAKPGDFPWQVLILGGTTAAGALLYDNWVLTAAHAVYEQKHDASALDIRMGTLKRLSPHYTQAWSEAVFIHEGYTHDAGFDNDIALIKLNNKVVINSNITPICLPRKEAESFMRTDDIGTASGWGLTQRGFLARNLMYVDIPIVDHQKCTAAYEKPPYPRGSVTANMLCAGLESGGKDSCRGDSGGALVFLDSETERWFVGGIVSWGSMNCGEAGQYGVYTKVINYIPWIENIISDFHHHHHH
row,human MASP2 IC50,Binder
1,210 nM,B1
2,140 nM,B3
3,210 nM,B16
4,8.1 nM,B17

# Target: T2, recombinant human MASP1 active protease …
# Assay: cell-based or functional assay
row,human MASP1 IC50,Binder
1,1.9 nM,B18
2,1.9 nM,B19
3,1.7 nM,B20
